Measured values from the nanobody polyreactivity screen of Harvey et al. (2022).

assay: yeast display, Sf9 membrane polyspecificity reagent, FACS + sequencing; frameworks hold sequencing errors
In short: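 Galactose-induced (36–48 hours) yeast carrying a synthetic nanobody display library were exposed to 10% biotinylated, detergent-solubilized Sf9 membrane reagent at 4 °C for 1 hour. FACS followed streptavidin microbead enrichment, using low and high (top ~1%) gates for expression (anti-HA) and reagent binding (streptavidin). Colony PCR, MiSeq 2 × 250 sequencing and CDR-length filtering followed. Labels for polyreactivity reflect the gate of origin.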

Sequence | polyreactivity (PSR sort gate)
QVQLVESGGGLVQAGGSLRLSCAASGFTFGIYDMGWYRQAPGKERELVAAISWRGVSTYYADSVKGRFRISRDNAKNTVYLQMNSLKPEDTAVYYCNAVDTDGDLYPINYPYDYGYDYWGQGTQVTVSS | low polyreactivity
QVQLVESGGGLVQAGGSLRLSCAASGNTFVYYAMGWYRQAPGKERELVAAISSSGGRTYYADSVKGRFTISRDNAKNTVYLQMNSLKPEDTAVYYCAARGPYTTKAYDYWGQGTQVTVSS | high polyreactivity
QVQLVESGGGLVQAGGSLRLSCAASGITFLQYAVGWYRPAPGKERELVAVISRGSRTYYADSVKGRFTISRDNAKNTVYLQMNSLKPEDTAVYYCAAVRGLAVGYDYWGQGTQVTVSS | high polyreactivity
QVQLVESGGGLVQAGGSLRLSCAASGRIFPLYAMGWYRQAPGKERELVARITYSGGSTYYADSVKGRFTISRDNAKNTVYLQMNSLKPEDTAVYYCAKDTYGRSTRNGYWGQGTQVTVSS | low polyreactivity
QVQLVESGGGLVQAGGSLRLSCAASGSIFNLYGMGWYRQAPGKERELVAGSTSSGGSTHYADSVKGRFTISRDNAKNTVYLQMNSLKPEDTAVYYCAKVWSFPSNYRAYYYWGQGTQVTVSS | high polyreactivity
QVQLVESGGGLVQAGGSLPLSCAAYGFTFWYYAMGWYRQAPGKERELVAAISTGGRTNYADSVKGRFTISRDNAKNTVYLQMNSLKPEDTAFYYCAADQSYFYLYRYRFDYWGQGTQVTVSS | high polyreactivity
QVQLVESGGGLVQAGGSLRLSCAASGSIFKRYAMGWYRQAPGKERELVAAISYSGGSTYYADSVKGLFTISRDNAKNTVYLQMNSLKPEDTAVDYCARGWFYPYYWGQGTQVTVSS | high polyreactivity
QVQLVESGGGLVQAGGSLRLSCAASGNTFYPYAMGWYRQAPGKERELVAAITSSGGSTYYADSVKGRFTISRDNAKNTVYLQMNSLKPEDTAVYYCAADPDWYSPFKYCYWGQGTQVTVSS | low polyreactivity
QVQLVESGGGLVQAGGSLRLSCAASGRIFRSNVMGWYRQAPGKERELVAAITGRGSSTYYADSVKGRFTISRDNAKNTVYLQMNSLKPEDTAVYYCAKASRYWSLYYWGQGTQVTVSS | high polyreactivity
QVQLVESWGGVVQAGGSLRISCAASGFILARYAMGWYRQAPGKERELVAAIRRSGGGTYYADSVKGRFTISRDNAKYTVYLLMKSLKPEDTAVYYCNRDPTYLAYYINYDSWGQGTQVTVSS | high polyreactivity
QFQLVESGGGLVQAGGSLRLSCAASGRIFGVYAMGWYRQAPVKERQLVATISLSAGRTYYADSVKGRFTISRDNAKNTVYLQMNSLKPEDTAVYYCAAQSNYSIRRHYYTFRYSYDYWGQGTQVTVSS | high polyreactivity
QVQLVESGGGLVQAGGSLRLSCAASGTFPGNAMGWYRQSPGKERELVATITRGGRTYYADSVKGRFTISRDNAKHTVYLQMNSLKPEDTAVYYCNTRVYFGKIRGYDYWGQGTQVTVSS | high polyreactivity
QVQLVESGGGLVQAGGSLSLSCAASGRIIGFNAMGWYRQAPGKERELVASIRTTGGSTRYADSVKGRFTISRDNAKNTVYLQMNSLKPEDTAVYYCAARWGKTLWQYNYWGQGTQVTVSS | high polyreactivity
QVQLVESAGCLVQAGASLRLSCAASGGTFRLYAMGWSRQAPGKERELVAAITGSSGGTYYADSVKGRFTISRDNAKNTVYLQMNSLKPEDTAVYYCAASSSYWGQGTQVTVSS | low polyreactivity
QVQLVESGGGLVQAGGSLRLSCAASGRIFGVNAMGWYRQAPGKERELVAAISWSGGSTYYADSVKGRFTISRDNAKNTVYLQMNSLKPEDTAVYYCAADIWFYTYYLGQGTQVTVSS | high polyreactivity
QVQLVESGGGLVQAGGSLRLSCAASGRIFVDNAMGWYRQAPGKERELVATISWSGGSTYADSVKGRFTISRDNAKNTVYLQMNSLKPEDTAVYYCAADGSWQFYTLYQEFDYWGQGTQVTVSS | low polyreactivity
QVQLVESGGGLVQAGGSLRLSCAASGGTLVPNAMGWYRPAPGKERELVAGISGSGGSTYYADSVKGRFTISRDNAKNTVYLQMNSLKPEDTAVYYCNADRYVPYYEPEMDYWGQGTQVTVSS | low polyreactivity
QVQLVESGGGLVQAGGSLRLRCAASGRIFSTYAMGWYRQAPGKERALVAAINKIGGSTYYADSVKGRFTISRDNAKNTVYLQMNSLKPEDTAVYYCAADAPFYPVRRYYYWGQGTQVTVSS | low polyreactivity
QVQLVESGGGLVQAGGSLRLSSAASGRTFQYYAMGWYRQAPGKERELVAAIDSSGGSTYYADSVKGRFTISRDNAKNTVYLQMNSLKPEDTAVYYCIAGRYRYYYYGYDYWGQGTQVTVSS | high polyreactivity
QVQLVESGGGLVQAGGSLRLSCAASGRIFKYYTMGWYRQAPGKERELVAAISRDDSTNYADSVKGRFTISRDNAKNTVYLQMNSLKPEDTAVYYCAKGYHQYAGFYYWGLGTQVTVSS | high polyreactivity
QVQLVESGGGLVQAGGSLRLSCAASGRTLRYYAMGWYRQAPGKDRELVASISIGGSTYYADSVKGRFTISRDNAKNTVYLQMTSLKPEDTAVYYGATDYSNSGYGYWGQGTQVTVSS | low polyreactivity
QVQLVESAGRLVQAGGSLRLSCAPSGSIFSHNAMGWYRPAPGKERELVAAISRSGGSTYYADSVKGRFTISRDNAKNTVYLQMNSQKPEDTAVYYCNALGRISNHTLYDYWGQGTQVTVSS | low polyreactivity

Sequence | polyreactivity (PSR sort gate)
QVHLVESGGGLVQAGGSLRLSCAASGRIFAYNAMGWYRQAPGKERELVAAITSRGTSTYYADSVKGRFTISRDNAKNTVYLQMNSLKQEDTAVYYCNADYNRNSVQVSLYDYWGQGTQVTVSS | low polyreactivity
QVQLVESGGGIVQAGGSLRLSCAASGSTFVTNVMGWYRQAPGKERELVAAISYSGGNTYYEDSVKGRFTISRDNANNTVYLHMNSLKPEDTAVYYCNAYRVVHPCEYDYWGQGTQVTVSS | high polyreactivity
QVQLVESGGGLVQAGGSLRLSCAGSGIIFFPYAMGWYRPAPGKERELVASINISDSSTYYADSVKGRFTISRDNAKNTVYLQMNSLKPQDTAVYYCAADNRGDSWYWHGYWGQGTQVTVSS | low polyreactivity
QVQLVESGGGLVQAGGSLRLSCAASGSTFYAYAMGWYSQAPGKERELVAAITRSGGSTYYADSVKGRFTISRDNAKNTVYLQMNSLKPEDTDVYYCNKYGYKGGVGYDYWGQGTQVTLSS | high polyreactivity
QVHLVESGGGLVQAGGSLRLSCAASGFTFVFYTMGWYRPAPGKERELVAAISHTGDSTYYADSVKGRFTISRDNAKNTVYFQMNSLKPEDTAVYYCATDLYTADPDPSPTYKFEYWGQGTQVTVSS | low polyreactivity
QVQIVESGGGLVQAGGSLRLSCAASGSTFTLNAMGWYRQAPGKERELVADISWSSGRTYYADSVKGRFTISRDNAKNTVYLQMNSLKPEDTAVYYCAARLPFEHVDYWGQGTQVTVSS | low polyreactivity
QVQLVESGGGLVQAGGSLRLSCAASGNTFAENAMGWYRQAPGKERELVDAISNGGTTNYADSVKGRFTISRDNAKNTVYLQMNSLKPEDTAVYYCNAKFGISQPGHSGLLKMDYWGQGTQVTVSS | low polyreactivity
QVQLVESGGGLVQAGGSLRLSCAASGSIFRRYAMGWYRQAPGKEREFVAAITRSGGGTYYADSVKGRFTISRDNAKNTVYLQMNSLKPEDTAVYYCAADAPNFGLYRDKDYDYWGQGTQVTVSS | high polyreactivity
QVQLVESGGGLVQAGGSLRLSCAASGSTFYKYAMGWYRQAPGKERELVAAISTRGGSTYYADSVKWRFTISRDNAKNTVYLQMNSLKPEDTAVFYCAADGRGGHDVYWGQGSQVTVSS | high polyreactivity
QVQLVESGGALVQAGGSLRLSCAASGSTFAYYAMGWSRPAPGKERELVAAITRGGRTNYADSVKGRFTISRDNAKNTVYVQMNSLNREDTAVYYCAARSGRSWLTCSYDYWGQGTQVTVSS | high polyreactivity
QVQLVESGGGLVQAGGSLRLSCAASGFIFTPYAMGWYRQAPGKERELVAAITWRGARTYYADSVKGRFTISRDIAKNSVYLQMNSLKPEDTAVYYCAALSRRSYAPRDDYWGQGTQVTVSS | high polyreactivity
QVQLVESGGGLVQAGGSLRLSSAASGSIFRYNAMGWYRPAPGKERELVAAITSSGGSTYYADSVKGRFTISRDNAKNTVYLQMNSLKPEDTAVYYCAAVRRRVHYPYDYWGQGTQVTVSS | high polyreactivity
QVQLVESGGGLVQAGGSLRLSCAASGIHFRSNAMGWYRQAPGKERELVAAISGRGGRTYYADSVKGRFTISRDNAKNTVYLQMNSLKPEDTAVYYCARESYLGATYPKAYGPYYYWGQGTQVTVSS | high polyreactivity
QVQLVESGGGLVQAGGSLRLSCAASGRTFYSNTMGWYRQSPGKERELVAAIDWSGGRTYYADSVKGRFTISRDNAKNTVYLQMHSLKPEDTAVYYCNTVGYSLRLRTGGYWGQGTQVTVSS | high polyreactivity
QVQLVESGGGIVQAGGSLRVSCAASGRIFRRHNMGWYRQAPGKERELVAAITSSGGSTYADSVKGRFTISRDNAQNTVYLQMNSLKPEDTAVYYCATYVAYHRGYRTYDHWGQGTQVTVSS | low polyreactivity
QVQLVESGGGLVQAGGSLRLSCAASGFIFYYNAMGWYRPAPGTERELVATINNDGGSSTYADSVKGRFTISRDNAKNTVYLQMNSLKPEDTAVYYCNAEAFYFTHTVWIPYYYWGQGTQVTVLS | low polyreactivity
QVQLVESGGGLVQAGGSLRLSCAASGRTFYLYAMGWYRQAPGTERELVADITSGGSTYYADSVKGRFTISRDNAKNTVYLQMNSLKPEDTAVYYCAADWVTFYSYTEYDYWGQGTQVTVSS | low polyreactivity
QVQLVESGGGLVQAGGSLRLSSAASGRILYRYAMGWYRQAPGKESELVAAIYRSGGDTYYADSVKGRFTITRDNAKNTVYLQMNSLIPEDTAVYYCAASFEGSGYRYDYWGQGSQVTVSS | low polyreactivity
QVQLVESGGGLVQAGGSLRLSCAASGRTFRTYVMGWYRRAPGKEREFVAGITWSSGSTRYADSVKGRFTISRDNAKNTVYLQMNSLKPEDTAVYYCAAKRWPGTDGYWGQGTQVTVSS | high polyreactivity
QVQLVESGGGLVQAGGSLRLSCAASGSTFYPNAMGWYRQAPGKERELVAAITDSVGTTNYADSVKGRFTISRDNAKNTVYLQINSLKPEDTAVYYCTAPIGGSYNTRRAAEYDYWGQGTQVTVSS | low polyreactivity
QVQLVESGGGLVQAGGSLRLSCAASGITFTSYAMGWYRQAPGKERELVAAISSSGGSTYYADSVKGRFTISRDNAKNTVYLQMNSLKPEDPAVYYCNARPRSRSPRVEYDYWGQGTQVTVSS | high polyreactivity
